Stoichiometry N data for 1 substance are collected here from PMC10060833.

The assay addresses recombinant HAdV55 fiber protein (human adenovirus type 55 (HAdV55)). The experiment in a line: SDS-PAGE without heating or reducing agent; purified recombinant fiber in loading buffer with 10% SDS, without beta-ME, kept at room temperature for 5 min ("Non-reducing").

By stoichiometry N is commonly meant the number of molecules, sites or subunits per partner or assembly. For “recombinant HAdV55 fiber protein (natural protein)”, the stoichiometry N is 3.
